Laboratory results from patent publication US20230099801A1, “RESTORATION OF T CELL ACTIVITY VIA THE CD39/CD73 AXIS” (INNATE PHARMA, priority 2017, published 2023).

Columns and labels:
[1] = molecular target: T1, CD73 mutants having a substitution at residue K136 (Homo sapiens, UniProt P21589, K136A); settings: cited from earlier work
T1 sequence (P21589 27-549 K136A): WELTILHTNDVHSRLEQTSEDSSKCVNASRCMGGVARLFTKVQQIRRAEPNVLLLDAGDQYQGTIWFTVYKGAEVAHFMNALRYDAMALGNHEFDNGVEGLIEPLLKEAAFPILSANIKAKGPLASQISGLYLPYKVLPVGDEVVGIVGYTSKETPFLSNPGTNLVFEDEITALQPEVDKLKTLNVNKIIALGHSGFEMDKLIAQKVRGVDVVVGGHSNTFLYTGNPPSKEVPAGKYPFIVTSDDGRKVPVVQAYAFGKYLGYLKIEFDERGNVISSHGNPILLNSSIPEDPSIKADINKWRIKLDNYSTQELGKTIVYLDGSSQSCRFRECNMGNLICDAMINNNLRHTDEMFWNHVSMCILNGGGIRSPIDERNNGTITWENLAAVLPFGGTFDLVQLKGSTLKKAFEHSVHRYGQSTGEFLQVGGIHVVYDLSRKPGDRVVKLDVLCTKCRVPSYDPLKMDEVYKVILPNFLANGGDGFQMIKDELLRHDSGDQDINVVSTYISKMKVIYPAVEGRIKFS

[2] = molecular target: T2, CD73 mutants having substitutions at residues A99, E129, K133, E134 and A135 (Homo sapiens, UniProt P21589, A135S/A99S/E129A/E134N/K133A); settings: cited from earlier work
T2 sequence (P21589 27-549 A99S/E129A/K133A/E134N/A135S): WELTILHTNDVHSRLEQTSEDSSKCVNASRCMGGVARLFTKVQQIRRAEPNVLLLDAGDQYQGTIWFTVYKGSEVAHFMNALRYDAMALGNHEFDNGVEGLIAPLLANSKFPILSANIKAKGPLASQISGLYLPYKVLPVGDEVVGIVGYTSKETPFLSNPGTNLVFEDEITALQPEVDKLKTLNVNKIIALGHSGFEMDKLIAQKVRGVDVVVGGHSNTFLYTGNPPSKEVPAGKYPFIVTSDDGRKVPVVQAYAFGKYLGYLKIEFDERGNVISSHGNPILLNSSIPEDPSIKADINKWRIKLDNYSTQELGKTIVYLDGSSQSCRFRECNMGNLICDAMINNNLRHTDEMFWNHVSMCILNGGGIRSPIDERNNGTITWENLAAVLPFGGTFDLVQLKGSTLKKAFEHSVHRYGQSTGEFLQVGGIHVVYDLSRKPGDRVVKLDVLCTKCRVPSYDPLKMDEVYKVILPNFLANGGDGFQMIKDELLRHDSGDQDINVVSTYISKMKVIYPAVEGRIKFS

[3] = test system: CD73 mutants having a substitution at residues K97, E125, Q153 and K330; settings: cited from earlier work
[4] = molecular target: T3, soluble recombinant human CD39 protein (Homo sapiens, UniProt P49961); experiment: Inhibition of the enzymatic (ATPase) activity of soluble CD39, Cell Titer Glo; type: biochemical; settings: 400 ng/ml soluble CD39, 20 μM ATP
T3 construct: made in house; host or cells: CHO cells
T3 sequence (P49961 with tags, fused parts or gaps): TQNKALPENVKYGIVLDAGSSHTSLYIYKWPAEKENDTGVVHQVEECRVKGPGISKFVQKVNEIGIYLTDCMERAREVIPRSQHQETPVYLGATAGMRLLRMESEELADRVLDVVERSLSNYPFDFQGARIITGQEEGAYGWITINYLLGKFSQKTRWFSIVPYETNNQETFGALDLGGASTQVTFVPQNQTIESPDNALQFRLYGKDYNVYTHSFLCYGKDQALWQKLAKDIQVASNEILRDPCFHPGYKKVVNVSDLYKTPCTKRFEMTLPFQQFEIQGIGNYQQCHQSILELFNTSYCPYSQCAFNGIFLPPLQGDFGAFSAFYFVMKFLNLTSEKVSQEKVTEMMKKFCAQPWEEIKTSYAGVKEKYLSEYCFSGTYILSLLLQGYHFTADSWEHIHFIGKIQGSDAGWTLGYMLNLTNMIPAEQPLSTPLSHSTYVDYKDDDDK
Method: The ability of an antibody to inhibit soluble recombinant human CD39 protein can be tested by detecting ATP after incubating test antibody with soluble CD39 protein (e.g., the CD39 protein having the amino acid sequence of SEQ ID NO: 5, as produced in Example 1, optionally further comprising a purification tag or other functional or non-functional non-CD39-derived amino acid sequence). See, e.g., Example 1. Briefly, ATP can be quantified using the Cell Titer Glo™ (Promega), in an assay in which dose ranges of test antibody are incubated with soluble recombinant human CD39 protein described in Example 1, for 1 hour at 37° C. 20 μM ATP are added to the plates for 30 additional minutes at 37° C. before addition of CTG reagent. Emitted light is quantified using an Enspire™ luminometer after a short incubation period of 5 min in the dark.
The inhibition by antibodies of the enzymatic activity of soluble CD39 protein produced was evaluated using Cell Titer Glo™ (Promega, reference G7571) that allows assessment of ATP hydrolysis through use of a reagent that generates a luminescent signal proportional to the amount of ATP present. In this way, inhibition of the soluble-CD39-mediated ATP hydrolysis can be assessed. Briefly, dose ranges of anti-CD39 antibodies from 100 μg/ml to 6×10^−3 μg/ml were incubated with 400 ng/ml of soluble recombinant human CD39 protein having the amino acid sequence described in the Methods section (SEQ ID NO: 54), for 1h at 37° C. 20 μM ATP was added to the plates for 30 additional minutes at 37° C. before addition of CTG (Cell Titer Glo) reagent. Emitted light was quantified using an Enspire™ luminometer after a short incubation period of 5 min in the dark. Anti-CD39 antibody efficacy was determined by comparing emitted light in presence of antibody with ATP alone (maximal light emission) and ATP together with soluble CD39 protein (minimal light emission).

CD39 mutant 11 = molecular target: T4, CD39 mutant 11 (Homo sapiens, UniProt P49961, DUP378-378/E375A/K376G/L372K/N371K/V377S); experiment: Epitope mapping by flow cytometry on Hek-293T cells expressing CD39 mutant 11; type: binding; settings: insertion 377V, V377S (Table 1)
T4 construct: expressed in transfected cells; host or cells: HEK-293T cells
T4 sequence (P49961 with tags, fused parts or gaps N371K/L372K/E375A/K376G/DUP378-378): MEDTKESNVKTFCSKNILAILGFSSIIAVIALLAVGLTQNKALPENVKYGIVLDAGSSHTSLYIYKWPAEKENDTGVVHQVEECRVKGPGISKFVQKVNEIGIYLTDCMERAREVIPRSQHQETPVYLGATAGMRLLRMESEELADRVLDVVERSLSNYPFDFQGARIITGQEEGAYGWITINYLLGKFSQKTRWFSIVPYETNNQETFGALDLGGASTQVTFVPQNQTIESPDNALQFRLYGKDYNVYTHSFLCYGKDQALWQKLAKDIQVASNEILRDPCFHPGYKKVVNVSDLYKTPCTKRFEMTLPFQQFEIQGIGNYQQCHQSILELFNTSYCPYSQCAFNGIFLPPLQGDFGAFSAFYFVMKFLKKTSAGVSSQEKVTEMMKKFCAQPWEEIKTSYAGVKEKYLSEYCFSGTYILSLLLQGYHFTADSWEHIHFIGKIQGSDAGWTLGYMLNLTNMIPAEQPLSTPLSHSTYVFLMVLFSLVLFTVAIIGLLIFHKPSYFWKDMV
Method: (§1) CD39 mutants were generated by PCR. The sequences amplified were run on agarose gel and purified using the Macherey Nagel PCR Clean-Up Gel Extraction kit (reference 740609). The purified PCR products generated for each mutant were then ligated into an expression vector, with the ClonTech InFusion system. The vectors containing the mutated sequences were prepared as Miniprep and sequenced. After sequencing, the vectors containing the mutated sequences were prepared as Midiprep using the Promega PureYield™ Plasmid Midiprep System. HEK293T cells were grown in DMEM medium (Invitrogen), transfected with vectors using Invitrogen's Lipofectamine 2000 and incubated at 37° C. in a CO2 incubator for 48 hours prior to testing for transgene expression. The targeted amino acid mutations in the table 1 below are shown using numbering of SEQ ID NO: 2.
(§2) In order to define the epitopes of anti-CD39 antibodies, we designed CD39 mutants defined by substitutions of amino acids exposed at the molecular surface over the surface of CD39.
(§3) Mutants were transfected in Hek-293T cells, as shown in the table 1, using numbering of SEQ ID NO: 2. Dose-ranges of test antibodies (10-2.5-0.625-0.1563-0.0391-0.0098-0.0024-0.0006 μg/ml) are tested on the 20 generated mutants by flow cytometry.

[5] = test system: other CD39 mutants of Table 1; experiment: Epitope mapping by flow cytometry on the other CD39 mutants of Table 1; type: binding, human
Method: as §1, §2
Mutant 5 contains amino acid substitutions at residues Q96, N99, E143 and R147.
as §3

B1: 3C12: anti-CD73 antibody, VH and VL of SEQ ID NOS: 44 and 45 (antibody, listed as Mus musculus, V domains shown)
VH: QIQLQQSGPELVKPGASVKVSCKASGYAFASYNMNWVKQSHGKSLDWIGYIDPYNGGSSYNLTFKGKATLTVDKSSTTAYMHLNSLTSEDSAVYYCARGYGNYKAWFAYWGQGTLVTVSAASTKGP
VL: DVVMTQTPKFLLVSAGDRVTITCKASQSVSNDVAWYQQKPGQSPKLLIYYASTRYTGVPDRFTGSGYGTDFTFTISTVQAEDLAVYFCQQDYSSLTFGAGTKLELKRTVAAP
[1]
  binding to CD73 mutants having a substitution at residue K136: lose binding
[2]
  binding to CD73 mutants having substitutions at residues A99, E129, K133, E134 and A135: lose binding
[3]
  binding to CD73 mutants having a substitution at residues K97, E125, Q153 and K330: lose binding

B2: 8C7: anti-CD73 antibody, VH and VL of SEQ ID NOS: 42 and 43 (antibody, listed as Mus musculus, V domains shown)
VH: EVQLQQSGPELVKPGASVKVSCKASGYAFASYNMNWVKQSHGKSLDWIGYIDPYNGGSSYNLTFKGKATLTVDKSSTTAYMHLNSLTSEDSAVYYCARGYGNYKAWFAYWGQGTLVTVSAASTKGP
VL: SIVMTPTPKFLLVSAGDRVTITCKASQSVSNDVAWYQQKPGQSPKLLIYYASTRYTGVPDRFTGSGYGTDFTFTISTVQAEDLAVYFCQQDYSSLTFGAGTKLELKRTVAAP
[1]
  binding to CD73 mutants having a substitution at residue K136: lose binding
[2]
  binding to CD73 mutants having substitutions at residues A99, E129, K133, E134 and A135: lose binding
[3]
  binding to CD73 mutants having a substitution at residues K97, E125, Q153 and K330: lose binding

B3: 11E1: anti-CD73 antibody, VH and VL of SEQ ID NOS: 40 and 41 (antibody, listed as Mus musculus, V domains shown)
VH: EIQLQQSGPELVKPGASVKVSCKASGYAFTSYNMYWVKQSHGKSLEWIGYIDPYNGGTSYNQKFKGKATLTVDKSSSTAYMHLNSLTSEDSAVYYCARGYGNYKAWFAYWGQGTLVTVSA
VL: DAVMTQTPKFLLVSAGDRVTITCKASQSVTNDVAWYQQKPGQSPKLLIYYASNRYTGVPDRFTGSGYGTDFTFTISTVQAEDLAVYFCQQDYSSLTFGAGTKLELK
[1]
  binding to CD73 mutants having a substitution at residue K136: lose binding
[2]
  binding to CD73 mutants having substitutions at residues A99, E129, K133, E134 and A135: lose binding
[3]
  binding to CD73 mutants having a substitution at residues K97, E125, Q153 and K330: lose binding

B4: 6E1: anti-CD73 antibody, VH and VL of SEQ ID NOS: 3 and 4 (WO2016/055609) (antibody, listed as Mus musculus, V domains shown)
VH: EFQLQQSGPELVKPGASVKVSCKASGYAFTSYNMYWVKQSHGKRLEWIGYIDPYNGGSSYNQKFKGKATLTVDKSSSTAYMHLNNLTSEDSAVYYCARGYNNYKAWFAYWGQGTLVTVSA
VL: SIVMTQTPKFLLVSAGDRVTITCKASQSVTNDVAWYQQKPGQSPKLLIYYASNRYTGVPDRFTGSGYGTDFTFTISTMQAEDLAVYFCQQDYSSLTFGAGTKLELK
[1]
  binding to CD73 mutants having a substitution at residue K136: lose binding
[2]
  binding to CD73 mutants having substitutions at residues A99, E129, K133, E134 and A135: lose binding
[3]
  binding to CD73 mutants having a substitution at residues K97, E125, Q153 and K330: lose binding

B5: I-399: anti-CD39 antibody, VH SEQ ID NO: 30, VL SEQ ID NO: 31 (antibody, listed as Mus musculus, V domains shown)
VH: PVQLQQPGAEVVMPGASVKLSCKASGYTFTSFWMNWMRQRPGQGLEWIGEIDPSDFYTNSNQRFKGKATLTVDKSSSTAYMQLSSLTSEDSAVYFCARGDFGWYFDVWGTGTSVTVSS
VL: EIVLTQSPTTMTSSPGEKITFTCSASSSINSNYLHWYQQKPGFSPKLLIYRTSNLASGVPTRFSGSGSGTSYSLTIGTMEAEDVATYYCQQGSSLPRTFGGGTKLEIK
[4]
  inhibition of the enzymatic (ATPase) activity of soluble CD39 protein: showed inhibition
CD39 mutant 11
  binding to cells expressing mutant 11 of CD39: loss of binding
[5]
  binding to any other mutant of the 20 CD39 mutants: without loss of binding
